According to the DeepSol protein solubility set:

Assay: soluble on expression in E. coli; label from the status in PepcDB or PDB records

With “LTLGNTTSSVILTNYMDTQYYGEIGIGTPPQTFKVVFDTGSSNVWVPSSKCSRLYTACVYHKLFDASDSSSYKHNGTELTLRYSTGTVSGFLSQDIITVGGITVTQMFGEVTEMPALPFMLAEFDGVVGMGFIEQAIGRVTPIFDNIISQGVLKEDVFSFYYNRDSENSQSLGGQIVLGGSDPQHYEGNFHYINLIKTGVWQIQMKGVSVGSSTLLCEDGCLALVDTGASYISGSTSSIEKLMEALGAKKRLFDYVVKCNEGPTLPDISFHLGGKEYTLTSADYVFQESYSSKKLCTLAIHAMDIPPPTGPTWALGATFIRKFYTEFDRRNNRIGFALAR” as the sequence, how does the “soluble on expression in E. coli” value read?
The value was “soluble”.

Which “soluble on expression in E. coli” value does the source give for “MKMKQVSRSALVSFSAEQMFHLVNDVARYPEFLPGCSGSCVLEQSEAHMVASVDVSKAGISKTFTTSNQLTPGVSIAMSLVDGPFKTLRGGWFFTPLDEAACKVELRLEFEFSSKMIELAFGKIFNELTSNMVNAFTRRAKQVYGEMAGDPLEHHHHHH” here?
The value was “not soluble”.

With “MSLDNQLINSIIEKYQFSKKQIEAVLTLLEEKNTVPFIARYRKEQTGGLDEVQIKQIDDEYQYMVNLQKRKEEVIKNIEQQGLLTEELKKDILKQNKLQRVEDLYRPFKQKKKTRATEAKRKGLEPLAIWMKARKHEVSIEEKAQQFINEEVQSVEDAIKGAQDIIAEQISDNPKYRTKILKDMYHQGVLTTSKKKNAEDEKGIFEMYYAYSEPIKRIANHRVLAVNRGEKEKVLSVKFEFDTTSVEDFIARQEINHNNVNRSYILEAIKDSLKRLIVPSIEREIHADLTEKAENHAIDVFSENLRNLLLQPPMKGKQILGVDPAFRTGCKLAVINPFGTFIAKGVIYPHPPVSKKEAAEKDFVQMVKAYDVQLIAIGNGTASRETEQFVADLIKKHQLPVQFIIVNEAGASVYSASEIARDEFPDFQVEERNAVSIGRHVQDPLSELVKIDPKSIGVGQYQHDFFQEGHHHHHH” as the sequence, how does the “soluble on expression in E. coli” value read?
The value was “soluble”.

For “ELQKKIKAADDIFPNQKKNPDKKDNPNVLEVLGEYGGDGFFPTLGNNGLNIPDQVFQSFNNFQIENYKISDFKVDIASERDIVQHDKFRFSYVVN”, which “soluble on expression in E. coli” value is on record?
Its value is “soluble”.
